According to publication doi:10.64898/2025.12.10.693372:

Assays:
[1] = target: SARS-CoV-2 Omicron LP.8.1 spike (S-6P) (SARS-CoV-2) (UniProt P0DTC2); assay: cryo-EM structure
[2] = target: SARS-CoV-2 Omicron JD.1.1 spike (S-6P) (SARS-CoV-2) (UniProt P0DTC2); assay: cryo-EM structure

Substance | stoichiometry N [1] | stoichiometry N [2]
SARS-CoV-2 Omicron LP.8.1 spike (S-6P) (from UniProt P0DTC2 14-1211) (natural protein) | 3 | –
SARS-CoV-2 Omicron JD.1.1 spike (S-6P) (from UniProt P0DTC2 14-1211) (natural protein) | – | 3
